The source of these data is patent US20240140995A1.

For orientation: Kd means the free concentration of one partner at which half of the binding sites on the other are occupied at equilibrium, for simple one-to-one binding. Read a low Kd as tighter binding. For orientation: koff means the rate constant with which the complex falls apart. The kon is the second-order rate constant of association. High values mean fast association, low ones slow association.

Some results are limits rather than exact numbers.

The target in experiment [1] is E. coli ColE-7 (E. coli) (UniProt Q47112). Kind of experiment: SPR Biacore T200, 37 C, single cycle kinetics. In general terms: SPR reads the build-up and loss of mass on a sensor chip optically.
Experiment [2] has as its target GthCol (Geobacillus thermoglucosidasius C-terminal Colicin DNase domain, C36A, H78A, engineered) (Geobacillus thermoglucosidasius). Kind of experiment: SPR Biacore T200, 37 C, single cycle kinetics.
Experiment [3] shares this target. The experiment can be described thus: SPR Biacore T200, 37 C, single cycle kinetics; […].
Experiment [4] addresses E. coli ColE-7 (E. coli) (UniProt Q47112). Kind of experiment: SPR Biacore T200, 37 C, single cycle kinetics; biotinylated immunity protein on streptavidin sensor, colicin analyte 1.1-90 nM.

As to “GthIM (Geobacillus thermoglucosidasius immunity protein, C18A, engineered), singly biotinylated”, in the experiment with E. coli ColE-7 (E. coli) [1], the complex half-life t/2-diss was less than 1 min and the fold less affinity than GthIM/GthCol came to 65000 fold. This substance registered a fold stronger than the IM7/ColE7 interaction in experiment [2] of more than 30 fold. Moreover, in experiment [3], the GthCol concentration at which GthIM saturation is achieved worked out at 3 nM; the Kd is less than 0.2 pM; the MR (Molar Ratio, binding stoichiometry) stood at 1.1; the koff is less than 1e-05 s⁻¹. In addition, the kon in experiment [3] is more than 5e+07 M⁻¹ s⁻¹. In addition, the MR (Molar Ratio, binding stoichiometry) with E. coli ColE-7 (E. coli) [4] came out at 1.2.
